To fix the notation:
B1: AHP30826 (antibody, V domains shown)
VH: QVQLQQSGGGSVQAGGSLRLSCAASGTILSINAMGWYRQAPGKQRELVATITTGGNANYAHSVKGRFTISRDNAKNTVYLQMNNLKPEDTAVYYCNAEQVVVGFLQAYDVWGQGTTVTVSS
VL: DVVMTQSPLSLPVTLGQAASISCRSSQSLVHGDGNTYLNWIQQRPGQSPRRLIYKVSNRDSGVPDRFSGSGSGTDFTLKISRVEAEDVGVYYCMQGTHWPSTFGPGTKVDIK
B2: AHP29153 (antibody, V domains shown)
VH: QLQQVESGGGLVQPGGSLRLSCAASRNIGILSTMGWYRQAPGKQRELVATITRGGSTNYGEFVKGRFTISRDNAKNTVYLQMNSLKPEDTAVYYCNVDESWLGTQSYWGRGTTVTVSS
VL: QSVLTQPASVSGSPGQSITISCTGTSSDVGGYKYVSWYQQPPGKAPKLIIYEVTKRPSGVPDRFSGSKSGNTASLTVSGLQAEDEADYYCLSYAGSNNVFGTGTKLTVL
B3: AHP32913 (antibody, V domains shown)
VH: QVQLMQSGGGLVQPGGSLRLSCAASRNIGILSTMGWYRQAPGKQRELVATITRGGSTNYGEFVKGRFTISRDNAKNTVYLQMNSLKPEDTAVYYCNVDESWLGTQSYWGRGTQVTVSS
VL: QAVVTQEPSLTVSPGGTVTLTCGSSTGPVTSGHYPHWYQQKPGQAPKTLIFDTSHKHPWTPAQFSGSLLGGKAALTLSGAHPEDEAEYYCLLSYSGVRVFGGGTQLIIL
B4: AHP32982 (antibody, V domains shown)
VH: QVQLVQSGGGLVQPGGSLRLSCAASRNIGILSTMGWYRQAPGKQRELVATITRGGSTNYGEFVKGRFTISRDNAKNTVYLQMNSLKPEDTAVYYCNVDESWLGTQSYWGRGPLVTVSS
VL: DIVMTQSPSSVSASVGDRVTITCRASQGISSWLAWYQQKPGKAPKLLIYAASSLQSGVPSRFSGSGSGTDFTLTISSLQPEDFATYYCQQANSFPLTFGGGTKVEIK
B5: AHP31548 (antibody, V domains shown)
VH: QVQLMQSGGGLVQPGGSLRLSCAASRNIGILSTMGWYRQAPGKQRELVATITRGGSTNYGEFVKGRFTISRDNAKNTVYLQMNSLKPEDTAVYYCNVDESWLGTQSYWGRGTTVTVSS
VL: QSALTQPPSASGSPGQSVTISCTGTSSDIGTYNFVSWYQQHPGKAPKLIIYEVSKRPSGVPDRFSGSKSGNTASLTVSGLQAEDEADYYCKSYPRVFGTGTKLTAL
B6: AHP32919 (antibody, V domains shown)
VH: QVQLQESGGGVVQPGGSLRLSCAASQSIGLLSTMGWYRQAAGKQRELVATITRGGSTNYGEFVKGRFTISRDNAKNTVYLQMNSLKPEDTAVYYCTADESWLGTQSYWGRGTRVTVSS
VL: QAGLTQPPSASGTPGQGVTISCSGSSSNIGSNSVNWYQQLPGTAPKLLMHSNNERSSGVPDRFSGSKSGSSASLAISGLQSEDAADYFCGAWDDSLNGYVFGTGTKLTVL

Data on six molecules can be found in patent EP4786493A1.

The target of this assay is murine Claudin 18.2 expressed on HEK293 cells (murine) (UniProt P56857). The assay is described as follows: flow cytometry on HEK293 cells expressing murine Claudin 18.2. (In general: Flow cytometry measures light scatter and fluorescence of single cells or particles in a stream.)
Sequence of murine Claudin 18.2 expressed on HEK293 cells (murine) (P56857 whole entry): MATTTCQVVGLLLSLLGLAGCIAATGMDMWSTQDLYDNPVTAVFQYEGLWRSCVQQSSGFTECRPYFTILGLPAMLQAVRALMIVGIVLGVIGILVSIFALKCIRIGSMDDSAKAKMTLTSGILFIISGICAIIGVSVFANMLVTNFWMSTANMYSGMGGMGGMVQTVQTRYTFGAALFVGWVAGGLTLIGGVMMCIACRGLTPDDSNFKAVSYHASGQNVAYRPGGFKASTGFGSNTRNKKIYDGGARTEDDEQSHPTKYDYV
As for B1, the EC50 was 3.44 nM.

In the case of B2, the EC50 is 4.45 nM.

In the case of B3, the EC50 amounted to 0.728 nM.

In turn, B4 registered an EC50 of 4.03 nM.

As for B5, the EC50 came out at 1.67 nM.

Take B6: the EC50 was determined as 0.772 nM.

One may read the EC50 as the concentration needed to bring the measured effect to its halfway point. Low values mean a more potent agent, high ones a less potent agent.
